Numbering of substitutions follows the chain as printed.
B1: human monoclonal antibody produced by hybridoma clone 3D8 (antibody, V domains shown)
VH: QVQLVESGGGVVQPGRSLRLSCAASGFSFSNYGMHWVRQAPGKGLEWVALIWYDGSNEDYTDSVKGRFTISRDNSKNTLYLQMNSLRAEDTAVYYCARWGMVRGVIDVFDIWGQGTVVTVSS
VL: DIQMTQSPSSVSASVGDRVTITCRASQGISSWLAWYQHKPGKAPKLLIYAASSLQSGVPSRFSGSGSGTDFTLTISSLQPEDFATYYCQQANSFPWTFGQGTKVEIK
notes: also called HuMAb 3D8
B2: human monoclonal antibody produced by hybridoma clone 33.3H2 (antibody, V domains shown)
VH: QVQLVESGGGVVQPGRSLRLSCAASGFTFNKYGMHWVRQAPGKGLEWVAVIWYDGTNKYYADSMKGRFTISRDNSKNMLYLQMNSLRAEDTAVYYCARDPPTANYWGQGTLVTVSS
VL: B1 VL with V11L, H38Q, G41E, L46S, A91Y, N92K, F94Y, W96V, Q100G
B3: human monoclonal antibody produced by hybridoma clone 1B11 (antibody, V domains shown)
VH: QMQLVESGGGVVQPGRSLRLSCEASGFSFNSYGMHWVRQAPGKGLEWVSVIWASGNKKYYIESVEGRFTISRDNSKNTLYLQMNSLRAEDTAVYYCARANFDYWGQGTLVTVSS
VL: EIVLTQSPATLSLSPGERATLSCRASQSVSSYLAWYQQKPGQAPRLLIYDASNRATGIPARFSGSGSGTDFTLTISSLEPEDFAVYYCQQRSNWSQFTFGPGTKVDIK
notes: also called HuMAb 1B11

Tests used:
C. difficile toxin A [1] = target: T1, C. difficile toxin A (Clostridium difficile, UniProt P16154 1-2710); assay: SPR (Biacore), antibody on protein A-coated chip, toxin A flowed over
C. difficile toxin A [2] = target: T1, C. difficile toxin A; assay: ELISA, 1 ug/ml Toxin A coat, O.D. 405 nm, four-parameter fit
[3] = target: toxin A subfragment amino acids 660-920 (Clostridium difficile, UniProt P16154 660-920); assay: western blot on toxin A subfragments
[4] = target: toxin A subfragment amino acids 660-807 (Clostridium difficile, UniProt P16154 660-807); assay: western blot on toxin A subfragments
C. difficile toxin A [5] = target: T1, C. difficile toxin A; assay: ELISA, 1 ug/ml Toxin A coat, O.D. 405 nm
[6] = target: toxin A subfragment amino acids 1-165 (Clostridium difficile, UniProt P16154 1-165); assay: western blot on toxin A subfragments
[7] = target: toxin A subfragment amino acids 1-415 (Clostridium difficile, UniProt P16154 1-415); assay: western blot on toxin A subfragments
[8] = target: toxin A subfragment amino acids 1-290 (Clostridium difficile, UniProt P16154 1-290); assay: western blot on toxin A subfragments

Binder	Kd (C. difficile toxin A [1])	A (lower asymptote of the four-parameter fit) (C. difficile toxin A [2])	D (upper asymptote of the four-parameter fit) (C. difficile toxin A [2])	EC50 (C. difficile toxin A [2])	binding result [3]	binding result [4]	EC50 (read off the curve) (C. difficile toxin A [5])	binding result [6]	binding result [7]	binding result [8]
B1	1.46 nM	0.173 O.D. 405 nm	3.66 O.D. 405 nm	4 ng/mL	–	–	–	–	–	–
B2	–	0.172 O.D. 405 nm	3.7 O.D. 405 nm	5 ng/mL	no binding	no binding	–	–	–	–
B3	0.738 nM	0.203 O.D. 405 nm	3.58 O.D. 405 nm	2 ng/mL	–	–	~2 ng/mL	no binding	no binding	no binding

From patent publication US20050287150A1 (UNIVERSITY OF MASSACHUSETTS, published 2005)
